The data set can be described thus: yeast display, Sf9 membrane polyspecificity reagent, FACS + sequencing; frameworks hold sequencing errors. In short, it runs like this:
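Nanobodies from a synthetic yeast display library (Saccharomyces cerevisiae BJ5465), induced 36–48 hours with galactose, were stained 1 hour at 4 °C with 10% biotinylated, detergent-solubilized Sf9 membrane reagent, enriched on streptavidin microbeads, then FACS-sorted. Anti-HA (expression) and streptavidin (reagent binding) fluorescence set low and high (top ~1%) gates. Polyreactivity labels come from the gate of origin. Genes were colony-PCR amplified, MiSeq 2 × 250 sequenced and filtered by CDR length.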
Turning to “QVQLVESFGGLVHAGGSLRLSCAASGFTFTSYTMGWYRQAPGKEREMVAAITNTGGSTYYADSVKGRFTISRDNAKNYVYLQMNSLKQEDTWVYYCAARTHIYGKFWRFYWGQGTQVTVSS”, the “polyreactivity (PSR sort gate)” value is reported as “low polyreactivity”.
Under “QVQLVDSGGGLVQAGVSLRLSCAASGSTFVGYAIGSYSQAPGKERELVAAISRSGGRTYYADSVKGRFTISRDKAKNTVYLQMNSLKPEDTAVYYCYPYYIASTFDEWGQGTQVTVSS” stands “high polyreactivity”; under “QVQLVESGGGLVQAGGSLRLSCAASGYIFPTYGMGWYRQAPGKERELVADITNNAGSTYYADSVKGRFTISRDKAKNTVYLQMKSLKPEDTEVYYCAADAYWPYWPYSYDYWGHGTQVTVSS”, “low polyreactivity”; under “QDQLVESGGGLVQAGGSLRLSCAASGSIFSSNAMGWYRQAPGKERELVAAINKSGGRTYYADSVKGRFTISRDNAKNTVYLQMNSLKPEDTAVYYCNKYGLASGLDYWGQGTQVTVSS”, “high polyreactivity”.
With “QVQLVESGGGLVQAGGSLRLSCAASGRIFGVYAMGWYRQAPGKERELVAAITRRGGTTYYADSVKGRFTISRDNAKNTVYLQMNSLKPEDTAVYYCAAVFVTQSFIYDYYYWGQGTQVTVSS”, the “polyreactivity (PSR sort gate)” value is on record as “high polyreactivity”.
Take “QVQLVESGGGLVQAGGSLRLSCASSGRIFDYNAKGWYRQAPGKERELVAAINSGGSTYADSVKGRFTISRDNAKNTVDLQMNSLKPEDTAVYYCAKSLGQTDWEYDSWGQGTQVTVSS”: the “polyreactivity (PSR sort gate)” value is given as “low polyreactivity”.
“QVQLVESGGGLVQAGGSLRLSCAASGRIFITNTMGWSRPAPGKERELVAAISRTGGSTYYADSVKGRFTISRDNAKNTVYLQMNSLKPEDTAVYYCAKRYYGSPQLRYYYWGQGTQVTVSS”: the “polyreactivity (PSR sort gate)” value is “high polyreactivity”.
As to “QVQLVDSGGGLVQGGGSLRLSCADSGYIFGRNAMGWYRQATGKEREFVAALSSSGSSTYYADSVKGRFTISRDNEKNTDYLQLNSLKPEDTAVDYCNAVRYYLAVPYDSWGQGTQVTVSS”, the “polyreactivity (PSR sort gate)” value is given as “high polyreactivity”.
On to “QVQLVESGGGLVQAGGSLRLSCAASGSIFPSYAMGWYRQAPGKERELVATISGSGTRTYYADSVKGRFTISRDNAKNTFYLQMNSLKPEDTAVYYCARLPPGDMDYWGQGTQVTVSS”, for which the “polyreactivity (PSR sort gate)” value is “low polyreactivity”.
In the case of “QVQLVESGGGLVQAGGSLRLSCAASGLIFRRYVMGWYRQAPGKERELVAAITSRGTRTYYADSVKGRFTISRDNAKNTVYLQMNSLKPEDTAVYYCNAQIYTYRTGRGYSRMDYWGQGTQVTVSS”, the “polyreactivity (PSR sort gate)” value is reported as “high polyreactivity”.
Consider “QVKLVESGGGLVQAGGSLLLSCAASVLTFYRYVIVCYRQEPGKERELVAAITKSGGSTYYADSVKGRFTISRDNAKNTVYLQMNSLKPEDTAVYYCAVRSYWRGDYWGQGTQVTVSS”, for which the “polyreactivity (PSR sort gate)” value was “high polyreactivity”.
Under “QVQLVESGVGLDQAGGSLRLSCAASGFTFYSNAMGWYRQAPGKERELVAAITGRGGRTYYADSVKGRFTISRDNAKNTVYLLMNSLKPEDTAVYYCAAVYHVSTWGGRYYFRQGYDYWGQGTQVTVSS” stands “high polyreactivity”; under “QVQLVESGGGLVQAGGSLRLSCAASGLTFGRNAMGWYRQAPGKERELVAAISRSGGRTSYADSVKGRFTISRDNAKNTVYLQMNSLKPEDTAVYYCAARSDVYTHDYWGQGTQVTVSS”, “high polyreactivity”; under “QVQLVESGGGLVQAGGSLRLICAASGRTFSYYAMGWYRQAPGKERELVATIRFSGGGTYYADSVKGRFTISRDNAKNTVYLQMNSLKPEDTAVYYCNADSIDPFLYDYWGQGTQVTVSS”, “low polyreactivity”.
As for “QVQLVESGGGLVKAGGSLRLSCAASGRIFYLNAMGWYRQAPGKERELVAGIRKRGGSTYYADSVKGRFTISRDNAKNTVYLQMNSLKPEDTAVYYSAGQPALTYRFYYWGQGTQVTVSS”, the “polyreactivity (PSR sort gate)” value is “high polyreactivity”.
Under “QVQLVESGGGLVQAGGSLRLISAASGFIFKIYAMGWHRQAPGKERDLVAAISSGDNTNYADSVKGRFTISRDNAKNTVYLQMNSLKPEDTAVYYCADRAYRWRSFSTMYYWGQGTQVTVSS” stands “high polyreactivity”; under “QVQLVESGGGLVQAGGSLRLSCAASGSTFGYNTMGWYRQAPGKEREWVAAITGTGRTNYADSVKGRFTISRDNAKNTVYLQMNSLKPEDTAVYYCAASLWQRAIGRYEYWGQGTQVTVSS”, “high polyreactivity”.
As for “QVQLEESGAGLVQAGGRHRLSCPASGFIFDWNAMGWYRQPPGKERELVAAISDDGDSTDYADSVKGRFTISRDNAKNTVYLQMNSLKPEDTAVYSCAANTERVYPCFSFGYWGQGTQVTVSS”, the entry is “low polyreactivity”; as for “QVQLVESGGGLVQAGGSLRLSCAASGFIFNRYAMGWYRQAPGKERELVADITGGSTYYADSVKGLFTISRDNAKNTVFLQMNSLKPEDTAVYYCAADVLRISTLLFRGPGFDSWGQGTQVTVSS”, “low polyreactivity”; as for “QVQLVESGGGLVQAGGSLRLSCAASGITFYGYAMGWYRQAPGKERELVAVITPSGSSTYYADSVKGRFTISRDNAKNTVYLQMNSLIPEDTAVYYCNARPGRRSLRSRTYDYWGQGTQVTVSS”, “high polyreactivity”.
Under “QVQLVESGGGLVQAGGSLRLSCDASGSTFKNYAMGWYRQAPGKERELVAGINWYGGRTYYADSVKGRFTISRDNAKNTVFLQMNSLKPEDTAVYYCAAALPGYGDYYYWGQGTQVTVSS” stands “high polyreactivity”; under “QVQLVESGGGLVQAGGSLRLSCAASGSTFWVNAMGWYRQAPGKERELVAAITYSGGSTHYADSVKGRFTISRDNAKNTVYLQMNSLKPEDTAVYYCNAEHWADYDYWGQGTQVTVSS”, “low polyreactivity”; under “QVQLVESGGGLVQAGGSLRLSCAASGSIFPINARGWYRQAPGKERELVAAISRRTGSTYYPDSVKGRFTISRDNAKNTVYVQMNSLKPEDTAVYYCAASYGTTRQRWLDYWGQGTQVTVSS”, “high polyreactivity”.
As to “QVQLVESGGGIVQAGGSLRLSCAASGRIFDWYVMGWYRQAPGKERELVAAINSGVSTKYADSVKGRFTISRDNAKNTVYLQMNSLKPEDTAVYYCAAQSFSDYRRTGRKSSYYYWGQGTLVTVSS”, the “polyreactivity (PSR sort gate)” value was “low polyreactivity”.
For “QDQLVESGGGLVQAGGSLRLSCAASGSIFTSNAMGWYRQAPGKERELVAVITGSTGRTHYADSVKGRFTISRDNAKNTVYLQMNSLKPEDTAVYYCAAGLTFVTNFDYWGQGTQVTVSS”, the “polyreactivity (PSR sort gate)” value is “low polyreactivity”.
Under “QFQLVESGGCLVQAGGSLRLSCAASGSIFLENTMGWYRQARGKEWEVVAPITSSGDSTYADSVKGRFTIARDNAKNTVYLHMNSLKPEDTAVYYCAAYAGSVRPGDLYGYDYWGQGTQVTVSS” stands “low polyreactivity”.
For “QVQLVESGGGLVQAGGSLRLSCAASGLIFSRYTMGWYRQPPGKERELVAAISSDGSTYYADSVKGRFTISRDNAKNTVYLQMNSLKPEDTAVYYCAARYWVGGRDRYDSWGQGTQVTVSS”, the “polyreactivity (PSR sort gate)” value is “high polyreactivity”.
As for “QVQLVESGGGLVQAGGSLRLSCAASGSTYTRYAMGWYRQATGKDRELVAAISRSGGSTYYADSVKGRFTISRDNAKNTVYLQMNSLKPEDTAVYYCRKFTLTTVTNYWGQGTQVTVSS”, the entry is “high polyreactivity”.
As to “QVQLVESGVGLVQAGGSLRLSCAASGTTFSQYAMGGYRQAPGKERELVAAIDWSGGSTYYADSVKGRFTISRDNAKNTVYLQMNSLKPVDTAVYYCNTLRFRSFYLYGYWGQGTQVTVSS”, the “polyreactivity (PSR sort gate)” value is reported as “high polyreactivity”.
As for “QVQLVESGGGLVQAGASLSLSCAASGFTFEDYAMGWYRQAPGKERELVAAISSRGTSTYYADSVKGRFTISRDNAKNTVYLQMNSLKREDTAVYYCNIRGWYPYGYWGQGTQVTVSS”, the entry is “high polyreactivity”; as for “QVQLVESGGGLVQAGGSLRLSCAASGLIFLDYAMGWYRQAPGKERELVAAISSSGGRTYYADSVKGRFTISRDNAKNTVYLQMNSLKPEDTAVYYCATGPNSYDYWGQGTQVTVSS”, “high polyreactivity”; as for “HVQLVESGGGLVQAGGSLRLSCAASGSIFFRNTMGWTRQAPGKEREKVAAITRGGGRTYYADSVKGRFTISRDNAKNTVYLQMNSLQPEDTAVYYCNTADYHGRWAFAWYGDYWGQGTQVTVSS”, “high polyreactivity”.
As for “QVQLVESGGGLVQAGGSLRLSCAASGRTSVLYAMGWYRQAPGKERELVAAISRDGSTNYADSVKGRFTISRDNAKNTVYLQMNSLKPEDTAVYYCAAEVRGSYYLTGYDYWGQGTQVTVSS”, the entry is “high polyreactivity”; as for “QVQLVESGGGLVQAGGSLRLSCAASGRTFGSNAMGWYRQAPGKERELVAAITKSGGGTYYADSVKGRFTISRDNAKNTVYLQMNSLKPEDTAVYYCAARRYARSGGALYPYDYWGQGSQVTVSS”, “high polyreactivity”.
Under “QVQLVESGGGLVQAGGSLRLSCAASGFICPIYPMGWYRQAPGKERELVAGISWRGGSTYYADSVKGRFTISRDKATYTVYLQMNSLKPEDTAVYYCAVVVQGYSTYYYWGQGTQVTVSS” stands “high polyreactivity”; under “QVQLVESGGGLVQAGGSLRLSCAASGSTFTSYAMGWYRQAPGKERELVAAINYSGGSTYYADSVKGRFTISRDNAKNTVYLQMNSLKPEDTAVYYCAADGYIRQYVTYYYWGQGTQVTVSS”, “low polyreactivity”; under “QVQLVESGGGLVQAGGSLRLSCAASGRTNCEYTMGWYRKAPGKERELVAVITKSGGSTYYADSVKGRFTISRDNAKNTVYLQMNSLKPEDTAVYDCAARRYYYLNSRYGYWGQGTQVTVSS”, “high polyreactivity”.
Consider “QVQLVESGGGLVQAGGSLRLSCAASGSTFEAYAMGWYRQAPGKERELVATITGSGGRTYADSVKGRFTITRDNAKNTVYLQMNSLKPEDTAVYYCAADCLKVAEYDYWGQGTQVTVSS”, for which the “polyreactivity (PSR sort gate)” value is recorded as “low polyreactivity”.
Regarding “QVQLVESGGGIVQAGGSLRLSCAASGSTYYGYTMGWYRQAPGKERELVAVITSGGSTYYADSVKGRFTISRDNAKNTVYLQMNILKPEDRAVYYCAKRYGYPAYGRPWRIGRTYDYWGQGTQVTVSS”, the “polyreactivity (PSR sort gate)” value is “low polyreactivity”.
Turning to “QVQLVESGGGLVQAGGSLRLSCAASGFIFFRYAMGWYRQAPGKERELVAAISSSGGSTYYADSVKGRFTISRDNAKNTVYLQMNSLKPEDTAVYYCAAPRYRIFVGLGMEYWGQGTQVTVSS”, the “polyreactivity (PSR sort gate)” value is “high polyreactivity”.
As for “QVQLVESGGGLVQAGGSLRLSCAASGRTFNYYAMAWYRQAPGKERELVAAISYSGGSTYYADSVKGRFTISRDNAKNTVYLQMNSLKPEDTAVYYCAVVIKWRSSYVYSYYYWGQGTQVTVSS”, the entry is “high polyreactivity”.

(Values after the nanobody polyreactivity screen of Harvey et al. (2022).)
